Test results: patent US20150307603A1 (MODIQUEST B V, published 2015)
Non-standard residues stand in square brackets, D forms with d. No end group written: not given here. Cit = NC(=O)NCCC[C@H](N)C(=O)O

What was measured:
huFibα XH [1] = target: T1, huFibα XH (human, X at position 15 = citrulline; biotin-labelled); assay: ELISA, Ab 0.4 ug/well
T1 peptide: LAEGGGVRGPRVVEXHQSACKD
Description: (§1) Biotin and citrulline-containing peptides derived from fibrinogen and vimentin were immobilized on NEUTRAVIDIN®-coated 96-well ELISA plates (0.3 μg/well). CFC-1 and CFC-0 were coated at the same concentration and served as positive and negative controls, respectively, for specific anti-citrulline reactivity and as coating controls. Non-coated wells were used to test for aspecific binding of the antibodies. […] Detection of bound anti-citrulline antibodies was performed by incubating the wells with rabbit anti-human HRP (1:2000) for 1 hour at RT followed by incubation with TMB substrate. The resulting OD (y-axis) is a measure for antibody binding.
(§2) Biotin-labeled and citrulline-containing fibrinogen and vimentin peptides (Table 5) were also tested for reactivity with the therapeutic antibodies. Peptides were coated on 96-well NEUTRAVIDIN®-ELISA plates.

huFibα XG [2] = target: T2, huFibα XG (human, X at position 8 = citrulline; biotin-labelled); assay: ELISA, Ab 0.4 ug/well
T2 peptide: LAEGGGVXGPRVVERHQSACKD
Description: as §1, §2

msFibβ XG [3] = target: T3, msFibβ XG (mouse, also: biotin-labelled); assay: ELISA, Ab 0.4 ug/well
T3 construct: also called mouse fibrinogen β peptide
T3 peptide: EPTDSLDA[Cit]GHRPVDRR
Description: as §1, §2

CFC-1 [4] = target: T4, CFC-1; assay: ELISA, Ab 0.4 ug/well
T4 construct: Positive control for anti-citrulline reactivity; also called cfc1 XG; Cfc1-peptide
Description: as §1, §2

msVim XS/XL [5] = target: T5, msVim XS/XL (mouse, also: biotin-labelled); assay: ELISA, Ab 0.4 ug/well
T5 construct: also called mouse vimentin peptide
T5 peptide: YVT[Cit]SSAV[Cit]L[Cit]SSVP
Description: as §1, §2

msFibα XG [6] = target: T6, msFibα XG (mouse, X at position 8 = citrulline; biotin-labelled); assay: ELISA, Ab 0.4 ug/well
T6 peptide: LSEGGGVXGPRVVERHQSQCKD
Description: as §1, §2

msFibα XH [7] = target: T7, msFibα XH (mouse, X at position 15 = citrulline; biotin-labelled); assay: ELISA, Ab 0.4 ug/well
T7 peptide: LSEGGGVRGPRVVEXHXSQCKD
Description: as §1, §2

[8] = target: T8, peptide no. 3 (human histone 2A) (human, also: biotin-labelled); assay: ELISA, Ab 10 ug/well
T8 construct: also called peptide 3
T8 peptide: KSRSS[Cit]AGLQFP
Description: as §1, with “histone 2A” for “fibrinogen and vimentin”

huFibα XH [9] = target: T1, huFibα XH; assay: ELISA, Ab 10 ug/well
Description: as §1, §2

huFibα XG [10] = target: T2, huFibα XG; assay: ELISA, Ab 10 ug/well
Description: as §1, §2

msFibβ XG [11] = target: T3, msFibβ XG; assay: ELISA, Ab 10 ug/well
Description: as §1, §2

CFC-1 [12] = target: T4, CFC-1; assay: ELISA, Ab 10 ug/well
Description: as §1, §2

msVim XS/XL [13] = target: T5, msVim XS/XL; assay: ELISA, Ab 10 ug/well
Description: as §1, §2

msFibα XG [14] = target: T6, msFibα XG; assay: ELISA, Ab 10 ug/well
Description: as §1, §2

msFibα XH [15] = target: T7, msFibα XH; assay: ELISA, Ab 10 ug/well
Description: as §1, §2

B1: RhmAb2.102 (antibody, human IgG1, lambda)
heavy: not shown
light: QSVLTQPPSMSAAPGQKVTISCSGSSSNIGNNYVSWYQQVPGTAPKLLIYDDNKRPSGIPGRFSGSKSATSATLGITGLQAGDEADYYCGSWDDNLSVVLFGGGTKLTVLGQPKAAPSVTLFPPSSEELQANKATLVCLISDFYPGAVTVAWKADSSPVKAGVETTTPSKQSNNKYAASSYLSLTPEQWKSHRSYSCQVTHEGSTVEKTVAPTECS
notes: Human IgG1 lambda; also called Rhm2.102
OD (huFibα XH [1]): 0.09 OD450 | OD (huFibα XG [2]): 0.521 OD450 | OD (msFibβ XG [3]): 1.67 OD450 | OD (CFC-1 [4]): 3.79 OD450 | OD (msVim XS/XL [5]): 1.45 OD450 | OD (msFibα XG [6]): 0.773 OD450 | OD (msFibα XH [7]): 0.076 OD450 | OD [8]: 0.619 OD450 | OD (huFibα XH [9]): 0.179 OD450 | OD (huFibα XG [10]): 2.73 OD450 | OD (msFibβ XG [11]): 3.8 OD450 | OD (CFC-1 [12]): 3.89 OD450 | OD (msVim XS/XL [13]): 3.69 OD450 | OD (msFibα XG [14]): 3.03 OD450 | OD (msFibα XH [15]): 0.154 OD450
